Where two headings read alike, the source gives them in different places.

Experiment [1] addresses commercially available anti-Stat3 antibody (Abcam, Cambridge, Mass.). The experiment is described as follows: ELISA, antibody coated at 1 µg/mL, secondary antibody 1:5,000, Experiment 3.
Experiment [2] deals with T1, active human TNF-α full length protein (human, UniProt P01375 77-233).
For experiment [3], the target named is T1, active human TNF-α full length protein. This is another data set of the same source.
Experiment [4] has the same target. The source holds these as a separate data set.
The target is the same in experiment [5]. This is another data set of the same source.
The target is the same in experiment [6]. This is another data set of the same source.
Experiment [7] shares this target. The source holds these as a separate data set.
Experiment [8] shares this target. The source holds these as a separate data set.
For experiment [9] the target is unchanged. The experiment is described as follows: ELISA, wells coated with 0.5 µg/mL TNF-α, sdAb at 1 µg/mL.
Experiment [10] has the same target. The source holds these as a separate data set.
The target is the same in experiment [11]. The source holds these as a separate data set.
The target is the same in experiment [12]. The source holds these as a separate data set.
The target is the same in experiment [13]. The source holds these as a separate data set.
Experiment [14] has the same target. The source holds these as a separate data set.
The next experiment concerns the target human STAT3 (human, UniProt P40763 1-770, limits assumed). The experiment is described as follows: SPR, Biacore 3000.
In another experiment the target is human STAT3 (Biacore) (human, UniProt P40763 1-770, limits assumed). As to the kind of experiment: SPR.
Experiment [15] has as its target human KRAS (normal human KRAS, full protein) (human, UniProt P01116-2 1-188, limits assumed). As to the kind of experiment: SPR, Biacore 3000.
The target of experiment [16] is endogenous STAT3 of the murine 4T1 cell line (murine, UniProt P42227 2-770). The experiment is described as follows: immunoprecipitation from 4T1 lysate, Western blot.
Sequence of endogenous STAT3 of the murine 4T1 cell line (P42227 2-770 limits assumed): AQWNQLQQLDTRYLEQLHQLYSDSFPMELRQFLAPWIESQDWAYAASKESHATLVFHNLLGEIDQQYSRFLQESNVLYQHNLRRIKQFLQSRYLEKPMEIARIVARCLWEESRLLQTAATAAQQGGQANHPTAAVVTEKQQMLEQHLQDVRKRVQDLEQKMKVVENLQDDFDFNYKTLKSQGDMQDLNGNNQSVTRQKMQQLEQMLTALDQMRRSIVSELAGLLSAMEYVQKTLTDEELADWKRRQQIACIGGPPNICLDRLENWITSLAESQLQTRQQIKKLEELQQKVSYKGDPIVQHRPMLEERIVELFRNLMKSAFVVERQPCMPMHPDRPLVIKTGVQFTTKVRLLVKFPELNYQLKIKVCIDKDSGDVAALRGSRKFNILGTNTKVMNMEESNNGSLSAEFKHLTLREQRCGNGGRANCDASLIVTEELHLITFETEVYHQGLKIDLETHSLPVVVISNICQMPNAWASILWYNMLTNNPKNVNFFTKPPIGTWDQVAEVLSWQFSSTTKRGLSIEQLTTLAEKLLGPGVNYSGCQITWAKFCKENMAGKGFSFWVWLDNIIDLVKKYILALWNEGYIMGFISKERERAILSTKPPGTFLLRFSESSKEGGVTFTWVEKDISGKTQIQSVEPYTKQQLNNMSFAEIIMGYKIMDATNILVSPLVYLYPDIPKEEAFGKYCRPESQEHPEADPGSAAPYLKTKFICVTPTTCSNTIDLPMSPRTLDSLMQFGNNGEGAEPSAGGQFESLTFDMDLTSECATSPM

T1 sequence (P01375 77-233 limits assumed): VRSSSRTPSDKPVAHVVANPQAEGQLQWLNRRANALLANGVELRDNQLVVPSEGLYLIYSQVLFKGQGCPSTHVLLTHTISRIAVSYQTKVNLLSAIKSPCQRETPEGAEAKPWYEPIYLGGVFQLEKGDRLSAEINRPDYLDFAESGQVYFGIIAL

Regarding his-probe (H-3) biotin labeled antibody, the OD450 in experiment [1] was determined as 0.018 OD450.

B1: anti-TNF-alpha VHH69 (SEQ ID NO:46) sdAb (VHH)
VHH: EVQLVESGGGSVLAGGSLRLSCVASGFTSRYNYMAWFRQAPGKEREGVATIGTASGSADYYGSVKDRFTISQDNAKNTVYLQMNSLKPEDTAMYYCAARTYGTISLTPSDYRYWGQGTLVTVSS
For B1, the “Signal/Noise Ratio” value in experiment [2] came out at 1.9; in experiment [3], 2.1; in experiment [4], 1.6; in experiment [5] it was 3.2; in experiment [6] it was 5.9; in experiment [7] it was 1.6. In addition, the “Signal/Noise Ratio” value in experiment [8] was determined as 2.4; in experiment [10], 8; in [11] it was 3.7; in [12], 1.5; in [13], 7.5; in experiment [14], 1.3. In [9], this molecule gave an OD450 of 1.95 OD450.

B2: anti-KRAS (G12D) (SEQ ID NO:2) sdAb (VHH)
VHH: EVQLVESGGGSVQTGGSLRLSCAVSGNIGSSYCMGWFRQAPGKKREAVARIVRDGATGYADYVKGRFTISRDSAKNTLYLQMNRLIPEDTAIYYCAADLPPGCLTQAIWNFGYRGQGTLVTVSS
Regarding B2, the binding result with human STAT3 is on record as “no binding (tested: 0-200 nM)”.

B3: anti-KRAS (G12D) (SEQ ID NO:2) sdAb (VHH)
VHH: EVQLVESGGGSVQTGGSLRLSCAVSGNIGSSYCMGWFRQAPGKKREAVARIVRDGATGYADYVKGRFTISRDSAKNTLYLQMNRLIPEDTAIYYCAADLPPGCLTQAIWNFGYRGQGTLVTVSS
In the case of B3, the binding result with human STAT3 (Biacore) is listed as “no binding”.

B4: anti-STAT3 VHH13 (SEQ ID NO:3) sdAb (VHH)
VHH: HVQLVESGGGSVQAGGSLRLSCAASGANGGRSCMGWFRQVPGKEREGVSGISTGGLITYYADSVKGRFTISQDNTKNTLYLQMNSLKPEDTAMYYCATSRFDCYRGSWFNRYMYNSWGQGTQVTVSS
Turning to B4, in experiment [15], the affinity, expressed as Kd, was 126 nM.

B5: anti-STAT3 VHH13 (SEQ ID NO:3) sdAb (VHH)
VHH: HVQLVESGGGSVQAGGSLRLSCAASGANGGRSCMGWFRQVPGKEREGVSGISTGGLITYYADSVKGRFTISQDNTKNTLYLQMNSLKPEDTAMYYCATSRFDCYRGSWFNRYMYNSWGQGTQVTVSS
With B5, in experiment [16], the binding result is “binds”.
